Substrate in the data set “purified protein”: O=[N+]([O-])c1ccc(O[C@@H]2O[C@H](CO)[C@@H](O)[C@H](O)[C@H]2O)cc1
The data set can be described thus: purified protein. The class given is biochemical, Aspergillus fumigatus. Conditions: 50 mM sodium phosphate pH 6.0, 40 °C, 30 min.

Substrate in data set [1]: OCc1ccccc1O[C@@H]1O[C@H](CO)[C@@H](O)[C@H](O)[C@H]1O
Nature of the data set: DNS method for released glucose, non-linear regression. The class given is biochemical, Aspergillus fumigatus. The note with it: 50 mM sodium phosphate pH 6.0, 40 °C, 30 min. An excerpt:
DNS method for released glucose, non-linear regression on AfBgl1.3

One protein from PMC10003650, “Characterization of a New Glucose-Tolerant GH1 β-Glycosidase from Aspergillus fumigatus with Transglycosylation Activity” (International Journal of Molecular Sciences, 2023) can be followed below.

B1: AfBgl1.3 (Aspergillus fumigatus Af293) (protein)
chain: MGSTTTSTLPPDFLWGFATASYQIEGAVDEDGRGPSIWDTFCKIPGKIAGGASGEVACDSYHRTHEDIALLKECGAKAYRFSISWSRVIPLGGRNDPVNEKGLQHYVKFVDDLLAAGITPLVTLFHWDLPDALDKRYGGLLNKEEFVADFANYARVMFNAFGSKVKYWITFNEPWCSSVLGYNVGQFAPGRTSDRTKSPVGDGSREPWIVGHNILVAHGAAVKIYREEFKPRDGGEIGITLNGDWAEPWDPENPADVEACDRKIEFAISWFADPIYHGKYPDSMVKQLGDRLPTWTPEDIALVHGSNDFYGMNHYCANYIKAKTGEPDPNDVAGNLEILLQNKNGEWIGPETQSPWLRPHPIGFRKLLKWLSDRYNQPKIYVTENGTSLKGESDLPVDQIVNDDFRVQYFREYIAAMADAYTLDGVNVRAYMAWSLMDNFEWAEGYETRFGVTFVDYANNQRRIPKKSAKVLREIFDQYIEKA
In the case of B1, in the data set “purified protein”, the Km came to 7.6 ± 0.8 mM, the Vmax was 656 µmol/min/mg, the kcat is 596 s⁻¹ and the kcat/Km worked out at 78000 M⁻¹ s⁻¹. In data set [1], the Km was 17.6 ± 1.9 mM, the Vmax was 706 µmol/min/mg, the kcat is 622 s⁻¹ and the kcat/Km turned out to be 35000 M⁻¹ s⁻¹.

What is called Km is the substrate concentration at which the rate is half of its maximum. As usually defined, the Vmax is the top rate of the reaction or transport when substrate is in excess. The term kcat denotes the maximal rate divided by the concentration of active sites. For orientation: kcat/Km means the second-order rate constant that governs catalysis at low substrate concentration.
